The nanobody polyreactivity screen of Harvey et al. (2022)

Assay: yeast display, Sf9 membrane polyspecificity reagent, FACS + sequencing; frameworks hold sequencing errors
In short: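 Nanobodies came from a synthetic yeast display library in Saccharomyces cerevisiae BJ5465, induced with galactose for 36–48 hours and stained for 1 hour at 4 °C with 10% biotinylated, detergent-solubilized Sf9 membrane reagent. Cells were enriched on streptavidin microbeads and then FACS-sorted, with low and high (top ~1%) gates set on anti-HA fluorescence for expression and streptavidin fluorescence for reagent binding. Each polyreactivity label reflects the gate a clone came from. Genes were amplified by colony PCR, sequenced by MiSeq 2 × 250 and filtered by CDR length.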

Sequence	polyreactivity (PSR sort gate)
QVQLVESGGGLVQAGGSLRLSCAASGITFSYYAMGWYRQAPGKERELVAAINSGGGSTYYADSVKGRFTISRDNAKNTVYLQMNSLKPEDTAVYYCAARYRSRYDYYYDRDYWGQGTQVTVSS	low polyreactivity
QVQLVESGGGLVQAGGSLRLSCAASGITFSYYAMGWYRQAPGKERELVAVISRRGGTTYYADSVKGRFTISRDNAKNTVYLQMNSLKPEDTAVYYCAATYISVLGYEYWGQGTQVTVSS	high polyreactivity
QVQLVESGGGLVQAGGSLRLSCAASGITFTFNAKGWYRQAPGKERELVAAISSTTSTIYADSVKRRFTISRDNAKNTVYLQMNRLKPEDTAVYYCAAVEFELLGDYWRQGTQVTVSS	low polyreactivity
QVQLVESGGGLVQAGGSLRLSCAASGITFTFNAMGWYRQAPGKDRELVAAMTWSGGSTFYADSVKGRFTISRDNAKNTVYLQMNSLKPEDSAVYYCARDTELYVRWLDYWGQGTQVTVSS	low polyreactivity
QVQLVESGGGLVQAGGSLRLSCAASGITFTGYAMVWYRQAPGKERELVAAIRGGGNTYYADSVKGRFTISRDNAKNTVYLQMNSLKPEDTAVYYCAADDIAHQYFVSTVDVGMDYWGQGTQVTVSS	low polyreactivity
QVQLVESGGGLVQAGGSLRLSCAASGITFTQYTMGWYRQARGKQRELVAAISSSGGRTYYADSVKGRYTISRDNAKKTVYLQMNSLKPEDTAVYYCAAAWRRTFDYCGQGTQVTVSS	high polyreactivity
QVQLVESGGGLVQAGGSLRLSCAASGITFTRNAMGWYRQAPGKERELVATISGSGGGTYYADSVKGRFTISRDNAKNTVYLQMNSLKPEDTAVYYCNARRWYYWQGTARYDYWGQGTQVTVSS	low polyreactivity
QVQLVESGGGLVQAGGSLRLSCAASGITFTSYAMGWYRQAPGKERELVAAISSSGGSTYYADSVKGRFTISRDNAKNTVYLQMNSLKPEDPAVYYCNARPRSRSPRVEYDYWGQGTQVTVSS	high polyreactivity
QVQLVESGGGLVQAGGSLRLSCAASGITFVHYAMGWYRQAPGKERELVAAISSGGGSTYYADSVKGRFTISRDNAKNTVYLQMNSLKPGVTAVYYCAAYVLPYGEYDYWGQGTQVTVSS	low polyreactivity
QVQLVESGGGLVQAGGSLRLSCAASGITFVLNALGWYRQAPRKERELVARISWSTGSTYYADSVKGRFTISRDNAKNTVYLQMNSLKPEDTAVYYCAVDYNVQSLYVVVEGEYWGQGTQVTVSS	low polyreactivity
QVQLVESGGGLVQAGGSLRLSCAASGITFVLYAMGWYRQAPGKERELVAAITWRGGSTYYADSVKGRFTISRDNAKNTVYLQMNSLKPEDTAVYYCAAVQFTSYRQGDYWGQGTQVTVSS	low polyreactivity
QVQLVESGGGLVQAGGSLRLSCAASGITFVNYAMGWYIQAPGKERELVAAISQSGAITFYADSVKGRFTISRDYAKNNVYLQMNSLKPEDTEVYYCAARRRRGDRSAYDYWGQGTQVTVSS	high polyreactivity
QVQLVESGGGLVQAGGSLRLSCAASGITFVPNAMGWYRQAPGKERELVARIDNGVSTNYADSVKGRFTISRDNAKNTVYLQMNSLKPEDTAVYYCAKDGYWGDWDQYYWGQGTQVTVSS	low polyreactivity
QVQLVESGGGLVQAGGSLRLSCAASGITFVPYAMGWYRQAPGKERELVAAISSSGGSTYYADSVKGRFTISRDNAKNTVYLQMNSLKPEDTAVYYCNVRTHSYIGMDYWGQGTQVTVSS	low polyreactivity
QVQLVESGGGLVQAGGSLRLSCAASGITFVRNAKGWYRPAPGTERELVAAISSGGSTYYADSVKGRFTISRDNAKNTVYLQMNSLKPEDTAVYYCAVLSSWRFSGYDYWGQGTQVTVSS	low polyreactivity
QVQLVESGGGLVQAGGSLRLSCAASGITFVRNALGWYRQAPGKEREFVAAISWSGGSTYYADSVKGRFTISRDNAKNTVYLQMNSLKPEDTAVYYCNAGSSYLSRFPLDYWGQGTQVTVSS	high polyreactivity
QVQLVESGGGLVQAGGSLRLSCAASGITFVRYAMGWYRQAPGKERELVAAISSGGRTIYADSVKGRFTISRDHANNTVFVHMNSLKPEDTAVYYCSKRRARSGQDYDYWGQGTQVTVSS	low polyreactivity
QVQLVESGGGLVQAGGSLRLSCAASGITFVRYAMGWYRQAPGKERELVAAISSGGSTHYADSVKGRFTISRDNAKNTVYLQMNSLKPEDTAVYYCAAQWTESSLYRFGYLGQGTQVTVSS	high polyreactivity
QVQLVESGGGLVQAGGSLRLSCAASGITFVSYAMGWYRQAPGKERELVAAISSWSGGTTYYADSVKGRFTISRDNAKNTVYLQMNSLKPEDTAVYYCAAVSFGSYRLGYWGQGTQVTVSS	high polyreactivity
QVQLVESGGGLVQAGGSLRLSCAASGITFVWNAMGWYRQAPGKERELVATISRGGVRTYYADSVKGRFTISRDNAKNTVYLQMNSLKPEDTAVYYCAADGSYVHWEYGYWGQGTQGTVSS	low polyreactivity
QVQLVESGGGLVQAGGSLRLSCAASGITFVYYAMGWYRQAPGNERELVATIDRSGTSTYYADSVKGRFTISRDNAKNTVVLQMTSLKQEDTAVYDCNAHRYAFYQYYRRMDYWGKGTQVTVSS	high polyreactivity
QVQLVESGGGLVQAGGSLRLSCAASGITFVYYDMGWYRQAPGKERELVAAISSDGSTYYADSVKGRFTISRDNAKNTVYLQMNSLKPEDSAVYYCAADYFNYRGYTYLGDYWGQCTQVTVSS	low polyreactivity

Sequence	polyreactivity (PSR sort gate)
QVQLVESGGGLVQAGGSLRLSCAASGITFWFNAMGWYRQAPGKERELVAAITSGVDTNYADSVKGRFTISRDNAKNTVYLQMNSLKPEDTAVYYCAAQGGRLKRGRTTSDYWGQGTQVTVSS	low polyreactivity
QVQLVESGGGLVQAGGSLRLSCAASGITFWHNTMGWYRQAPGKERELVAAISWTGGRTYYADSVKGRFTISRDNAKNTVNFQMNSLNPEDTAVNYCAADFSWTPSGNYDSWGQGTQVTVSS	low polyreactivity
QVQLVESGGGLVQAGGSLRLSCAASGITFWKYAMGWYRQAPGKERELVAAISKSGGSTYYADSVKGRFTISRDNAKNTVYLQMNSLKPEDTAVYYCAAYPQFWYWDYNYWGQGTQVTVSS	high polyreactivity
QVQLVESGGGLVQAGGSLRLSCAASGITFWNAMGWYRQAPGKERELVAAITSSGGSTYYADSVKGRFTISRDNAKNTVYLQMNSLKPEDTAVYYCAADYGRTRYDMDYWGQGTQVTVSS	low polyreactivity
QVQLVESGGGLVQAGGSLRLSCAASGITFWNNAMGWYRQAPGKERELVATISSNGGRTYYADSVKGRFTISRDNAKNSVYLQMNSLKPEDTAVYYCNAARRAYGYNYWGQGTQVTVSS	low polyreactivity
QVQLVESGGGLVQAGGSLRLSCAASGITFWPYAMGWYRQAPGKERELVAAISFIDGSTSYADSVKGRFTISRDNAKNTVYLQMNSLKPEDTAVYYCAAVIPGPSIWLYYYWGQGTQVTVSS	low polyreactivity
QVQLVESGGGLVQAGGSLRLSCAASGITFWSNAMGWYRQAPGKERELVAAITSGGNTNYADSVKGRFTISRDNAKNTVYLQMNSLKPEDTAVYYCAKRWTAREPWRKGMGYWGQGTQVTVSS	high polyreactivity
QVQLVESGGGLVQAGGSLRLSCAASGITFYDNAMGWDRQAPGKEREFVAAISKSGGNTYYADSVKGRFTISRDNAKNTVYLQMNSLKPEDTAVYYCDARTQAFSRKGYGYWGQGTQVTVSS	high polyreactivity
QVQLVESGGGLVQAGGSLRLSCAASGITFYDNAMGWYRQAPGKERELVAAIRSGDSTYYADSVKGRFTISRDNAKNTVYLQMNSLKPEDTAVYYCAARTPWVYYWRFYYWGQGTQVTVSS	high polyreactivity
QVQLVESGGGLVQAGGSLRLSCAASGITFYDNAMGWYRQAPGKERELVAGISYDGDSTYADSVKGRFTISRDNAKNTVYLQMNSLKPEDTAVYYCAALGPYDWLWAGDYWGQGTQVTVSS	low polyreactivity
QVQLVESGGGLVQAGGSLRLSCAASGITFYDNVMGWYRQAPGKERELVAAITSGGSTNYADSVKGRFTISRDNAKNTVYLQMNSLKPEDTAVYYCAAQPRVDYEFPYRYGYWGQGTQVTVSS	low polyreactivity
QVQLVESGGGLVQAGGSLRLSCAASGITFYDYAMGRYRQAPGKERELVAAISGGGITYYADSVKGRFTISRDNAKNTVYLQMNSLKPEDTAVYYCAAVYIAGYGYDYWGQGTQVTVSS	low polyreactivity
QVQLVESGGGLVQAGGSLRLSCAASGITFYDYAMGWYRQAPGKERELVAAISFSGSRTYYADSVKGRFTISRDNAKNTVYLQMNCLKPEDTAVYYCATDTQDLHGYSWFDYWGQGTQVTVSS	high polyreactivity
QVQLVESGGGLVQAGGSLRLSCAASGITFYFYAMGWYRQAPGKERELVAAITSTGTSTYYADSVKGRFTISRDNAKNTVYLQMNSLKPEDSAVYYCAKDQHYPHYQPYWSRYDYWGQGTQVTVSS	low polyreactivity
QVQLVESGGGLVQAGGSLRLSCAASGITFYGKAMGWYREAPGKERELGAAITGGGGTNYADSVKGRFTISRDNAKKTVYLQMTSLKPEDTAVYYCNRDYFVWFQRGQYKRGSSWYDNWGQGTQVTVSS	low polyreactivity
QVQLVESGGGLVQAGGSLRLSCAASGITFYGNAMGRYRQAPGKEREVVAAISSSGGTTYYADSVKGRFTISRDNAKNTVYLQMNSLKPEDTAVYFCNALHPVVYYGTYFNLRRYDYWGQGTQVTVSS	low polyreactivity
QVQLVESGGGLVQAGGSLRLSCAASGITFYGNDMGWYRQAPGKERELVAAISANDGNTYYADSVKGRFTISRDNAKNTVYLQMNSLKPEDTAVYYCAAERYEDYTEYDYWGQGTQVTVSS	low polyreactivity
QVQLVESGGGLVQAGGSLRLSCAASGITFYGYAMGWYRQAPGKERELVARISRSGGSTYYADSVKGRFTISRDNAKNTVYLQMNSLKPEDTAVYYCAAGYGPSGYTRYYWGQGTQVTVSS	high polyreactivity
QVQLVESGGGLVQAGGSLRLSCAASGITFYKYVMGWYRQAPGKERELVARISKGGGSTYYADSVKGRFTISRDYAKNTVYLQMNSLKPEDTAVYYCNARGGYYVRSSAEYDYWGQGTQVTVSS	high polyreactivity
QVQLVESGGGLVQAGGSLRLSCAASGITFYLYALGWYRQAPGKERELVAAISSSGGRTYYADSVKGRFTISRDNAKNTVYLQMNSLKPEDTAVYYCAARRYGVPPTYDYWGQGTQVTVSS	high polyreactivity
QVQLVESGGGLVQAGGSLRLSCAASGITFYLYDMGWYRQAPGKERELVASITSDGSTDYADSVKGRFTISRDNAKNTVYLQMNSLKPEDTAVYYCNARVTYAWYRFGRSGDDSWGQGTQVTVSS	low polyreactivity
